Experiments:
[1] = molecular target: monkey TIM-3 extracellular domain protein with hFc tag (cTIM-3-hFc) (monkey); experiment: ELISA, coated monkey TIM-3 ECD protein, 0.0067 nM antibody
[2] = molecular target: monkey TIM-3 on CHOK1 stable cell line (CHOK1-cTIM-3) (monkey); experiment: FACS, CHOK1-cTIM-3 cells, 0.064 nM antibody
[3] = molecular target: human TIM-3 on CHOK1 stable cell line (CHOK1-hTIM-3) (human) (UniProt Q8TDQ0); experiment: FACS, CHOK1-hTIM-3 cells, 0 nM antibody
[4] = molecular target: human TIM-3 extracellular domain protein with hFc tag (hTIM-3-hFc) (human) (UniProt Q8TDQ0); experiment: ELISA, coated human TIM-3 ECD protein, 0.0667 nM antibody
Sequence of human TIM-3 extracellular domain protein with hFc tag (hTIM-3-hFc) (human) (Q8TDQ0 22-200): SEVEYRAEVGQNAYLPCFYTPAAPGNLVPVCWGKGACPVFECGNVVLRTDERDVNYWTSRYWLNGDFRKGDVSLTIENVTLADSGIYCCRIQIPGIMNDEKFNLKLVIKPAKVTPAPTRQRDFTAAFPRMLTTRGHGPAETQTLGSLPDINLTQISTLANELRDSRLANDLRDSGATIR

[5] = molecular target: murine TIM-3 extracellular domain protein with hFc tag (mTIM-3-hFc) (mouse) (UniProt Q8VIM0); experiment: ELISA, coated mouse TIM-3 ECD protein, 0.0001 nM antibody
Sequence of murine TIM-3 extracellular domain protein with hFc tag (mTIM-3-hFc) (mouse) (Q8VIM0 other isoform, or with tags, fused parts or gaps): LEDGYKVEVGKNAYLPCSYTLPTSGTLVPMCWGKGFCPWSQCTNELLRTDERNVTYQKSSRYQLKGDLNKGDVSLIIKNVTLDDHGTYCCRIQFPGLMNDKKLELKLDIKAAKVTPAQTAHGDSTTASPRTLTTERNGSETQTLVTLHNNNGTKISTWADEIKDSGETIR

[6] = molecular target: monkey TIM-3 on CHOK1 stable cell line (CHOK1-cTIM-3) (monkey); experiment: FACS, CHOK1-cTIM-3 cells, 40 nM antibody
[7] = molecular target: monkey TIM-3 extracellular domain protein with hFc tag (cTIM-3-hFc) (monkey); experiment: ELISA, coated monkey TIM-3 ECD protein, 0.6667 nM antibody
[8] = molecular target: murine TIM-3 extracellular domain protein with hFc tag (mTIM-3-hFc) (mouse) (UniProt Q8VIM0); experiment: ELISA, coated mouse TIM-3 ECD protein, 66.667 nM antibody
[9] = molecular target: human TIM-3 extracellular domain protein with hFc tag (hTIM-3-hFc) (human) (UniProt Q8TDQ0); experiment: FACS, blocking of hTIM-3-hFc binding to phosphatidylserine on apoptotic Jurkat cells, 2.469 nM antibody
[10] = molecular target: murine TIM-3 extracellular domain protein with hFc tag (mTIM-3-hFc) (mouse) (UniProt Q8VIM0); experiment: ELISA, coated mouse TIM-3 ECD protein, 0 nM antibody
[11] = molecular target: monkey TIM-3 on CHOK1 stable cell line (CHOK1-cTIM-3) (monkey); experiment: FACS, CHOK1-cTIM-3 cells, 0.013 nM antibody
[12] = molecular target: human TIM-3 extracellular domain protein with hFc tag (hTIM-3-hFc) (human) (UniProt Q8TDQ0); experiment: ELISA, coated human TIM-3 ECD protein, 0.0007 nM antibody
[13] = molecular target: human TIM-3 on CHOK1 stable cell line (CHOK1-hTIM-3) (human) (UniProt Q8TDQ0); experiment: FACS, CHOK1-hTIM-3 cells, 0.013 nM antibody
[14] = molecular target: monkey TIM-3 on CHOK1 stable cell line (CHOK1-cTIM-3) (monkey); experiment: FACS, CHOK1-cTIM-3 cells, 0.32 nM antibody
[15] = molecular target: murine TIM-3 extracellular domain protein with hFc tag (mTIM-3-hFc) (mouse) (UniProt Q8VIM0); experiment: ELISA, coated mouse TIM-3 ECD protein, 0.6667 nM antibody
[16] = molecular target: human TIM-3 extracellular domain protein with hFc tag (hTIM-3-hFc) (human) (UniProt Q8TDQ0); experiment: ELISA, coated human TIM-3 ECD protein, 0.0067 nM antibody
[17] = molecular target: monkey TIM-3 extracellular domain protein with hFc tag (cTIM-3-hFc) (monkey); experiment: ELISA, coated monkey TIM-3 ECD protein, 0.0667 nM antibody
[18] = molecular target: human TIM-3 extracellular domain protein with hFc tag (hTIM-3-hFc) (human) (UniProt Q8TDQ0); experiment: FACS, blocking of hTIM-3-hFc binding to phosphatidylserine on apoptotic Jurkat cells, 0 nM antibody
[19] = molecular target: human TIM-3 extracellular domain protein with hFc tag (hTIM-3-hFc) (human) (UniProt Q8TDQ0); experiment: ELISA, coated human TIM-3 ECD protein, 6.6667 nM antibody
[20] = molecular target: murine TIM-3 extracellular domain protein with hFc tag (mTIM-3-hFc) (mouse) (UniProt Q8VIM0); experiment: ELISA, coated mouse TIM-3 ECD protein, 0.0007 nM antibody
[21] = molecular target: monkey TIM-3 extracellular domain protein with hFc tag (cTIM-3-hFc) (monkey); experiment: ELISA, coated monkey TIM-3 ECD protein, 66.667 nM antibody
[22] = molecular target: human TIM-3 on CHOK1 stable cell line (CHOK1-hTIM-3) (human) (UniProt Q8TDQ0); experiment: FACS, CHOK1-hTIM-3 cells, 0.064 nM antibody
[23] = molecular target: murine TIM-3 extracellular domain protein with hFc tag (mTIM-3-hFc) (mouse) (UniProt Q8VIM0); experiment: ELISA, coated mouse TIM-3 ECD protein, 0.0067 nM antibody
[24] = molecular target: TIM-3 protein on human peripheral blood mononuclear lymphocytes (PBMC) (human) (UniProt Q8TDQ0); experiment: cell-based or functional assay
Sequence of TIM-3 protein on human peripheral blood mononuclear lymphocytes (PBMC) (human) (Q8TDQ0 22-301 limits assumed): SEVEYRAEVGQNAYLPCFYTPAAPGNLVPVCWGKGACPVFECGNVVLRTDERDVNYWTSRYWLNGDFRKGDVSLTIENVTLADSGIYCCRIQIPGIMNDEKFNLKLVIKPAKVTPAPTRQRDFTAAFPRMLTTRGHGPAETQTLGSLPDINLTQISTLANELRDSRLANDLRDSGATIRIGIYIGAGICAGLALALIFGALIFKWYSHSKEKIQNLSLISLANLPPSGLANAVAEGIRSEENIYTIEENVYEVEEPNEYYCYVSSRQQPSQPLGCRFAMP

[25] = molecular target: monkey TIM-3 extracellular domain protein with hFc tag (cTIM-3-hFc) (monkey); experiment: ELISA, coated monkey TIM-3 ECD protein, 6.6667 nM antibody
[26] = molecular target: monkey TIM-3 extracellular domain protein with hFc tag (cTIM-3-hFc) (monkey); experiment: ELISA, coated monkey TIM-3 ECD protein, 0 nM antibody
[27] = molecular target: monkey TIM-3 extracellular domain protein with hFc tag (cTIM-3-hFc) (monkey); experiment: ELISA, coated monkey TIM-3 ECD protein, 0.0001 nM antibody
[28] = molecular target: human TIM-3 extracellular domain protein with hFc tag (hTIM-3-hFc) (human) (UniProt Q8TDQ0); experiment: FACS, blocking of hTIM-3-hFc binding to phosphatidylserine on apoptotic Jurkat cells, 0.823 nM antibody
[29] = molecular target: monkey TIM-3 on CHOK1 stable cell line (CHOK1-cTIM-3) (monkey); experiment: FACS, CHOK1-cTIM-3 cells, 1.6 nM antibody
[30] = molecular target: human TIM-3 extracellular domain protein with hFc tag (hTIM-3-hFc) (human) (UniProt Q8TDQ0); experiment: ELISA, coated human TIM-3 ECD protein, 0.6667 nM antibody

Sequence of monkey TIM-3 extracellular domain protein with hFc tag (cTIM-3-hFc) (monkey) (chain, as listed by the source): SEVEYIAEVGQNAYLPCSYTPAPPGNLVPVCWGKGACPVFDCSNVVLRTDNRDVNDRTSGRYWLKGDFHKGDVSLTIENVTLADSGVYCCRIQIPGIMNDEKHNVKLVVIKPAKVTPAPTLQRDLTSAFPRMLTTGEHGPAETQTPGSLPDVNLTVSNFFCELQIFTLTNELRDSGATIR
Sequence of monkey TIM-3 on CHOK1 stable cell line (CHOK1-cTIM-3) (monkey) (chain, as listed by the source limits assumed): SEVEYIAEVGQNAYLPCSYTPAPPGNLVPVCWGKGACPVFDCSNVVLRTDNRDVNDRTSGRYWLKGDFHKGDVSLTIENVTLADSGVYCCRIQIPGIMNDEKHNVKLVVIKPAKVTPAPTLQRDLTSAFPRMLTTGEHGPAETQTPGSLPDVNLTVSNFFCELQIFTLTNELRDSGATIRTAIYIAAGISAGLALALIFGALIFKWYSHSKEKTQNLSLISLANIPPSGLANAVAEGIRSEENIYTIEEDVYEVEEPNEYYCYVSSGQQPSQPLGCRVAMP
Sequence of human TIM-3 on CHOK1 stable cell line (CHOK1-hTIM-3) (human) (Q8TDQ0 22-301 limits assumed): as the sequence (Q8TDQ0 22-301 limits assumed) above

OD450 [1]: 0.13 | Mean fluorescence intensity [2]: 2.9 | Mean fluorescence intensity [3]: 2.8 | OD450 [4]: 0.07 | OD450 [5]: 0.22 | Mean fluorescence intensity [6]: 6 | OD450 [7]: 0.15 | OD450 [8]: 0.73 | Inhibition ratio (%) [9]: -3.9% | OD450 [10]: 0.23 | Mean fluorescence intensity [11]: 2.8 | OD450 [12]: 0.07 | Mean fluorescence intensity [13]: 2.8 | Mean fluorescence intensity [14]: 3.1 | OD450 [15]: 0.22 | OD450 [16]: 0.07 | OD450 [17]: 0.13 | Inhibition ratio (%) [18]: -2.5% | OD450 [19]: 0.08 | OD450 [20]: 0.21 | OD450 [21]: 0.43 | Mean fluorescence intensity [22]: 2.8 | OD450 [23]: 0.21 | IFN-γ production (donor X); antibody 0.1 µg/ml, N = 1 [24]: 2040 pg/mL | IFN-γ production (donor X); antibody 0.1 µg/ml, N = 2 [24]: 2060 pg/mL | IFN-γ production (donor X); antibody 1 µg/ml, N = 1 [24]: 2090 pg/mL | IFN-γ production (donor X); antibody 1 µg/ml, N = 2 [24]: 2070 pg/mL | IFN-γ production (donor X); antibody 10 µg/ml, N = 1 [24]: 2030 pg/mL | IFN-γ production (donor X); antibody 10 µg/ml, N = 2 [24]: 2020 pg/mL | IFN-γ production (donor X); antibody '0' (4th head as printed), N = 1 [24]: 2260 pg/mL | IFN-γ production (donor X); antibody '0' (4th head as printed), N = 2 [24]: 1900 pg/mL | IFN-γ production (donor X); antibody '0' (5th head as printed), N = 1 [24]: 2000 pg/mL | IFN-γ production (donor X); antibody '0' (5th head as printed), N = 2 [24]: 2320 pg/mL | OD450 [25]: 0.18 | OD450 [26]: 0.13 | OD450 [27]: 0.13 | Inhibition ratio (%) [28]: 2.8% | Mean fluorescence intensity [29]: 3.2 | OD450 [30]: 0.07
Substance: human IgG control (antibody)

Reference: patent publication US20220033501A1
